Laboratory results as given in PMC5113301 (Cell Research, 2016).

B1: seleno-methionine substituted AcrF3 (anti-CRISPR protein encoded by gene 35 from phage JBD5) (natural protein)
chain: MSNTISDRIVARSVIEAARFIQSWEDADPDSLTEDQVLAAAGFAARLHEGLQATVLQRLVDESNHEEYREFKAWEEALLNADGRVASSPFADWGWWYRIANVMLATASQNVGVTWGSRVHGRLMAIFQDKFKQRYEEQA
modifications: seleno-methionine substituted
B2: AcrF3 (as in the PaeCas3-AcrF3 complex) (natural protein, phage JBD5)
chain: MSNTISDRIVARSVIEAARFIQSWEDADPDSLTEDQVLAAAGFAARLHEGLQATVLQRLVDESNHEEYREFKAWEEALLNADGRVASSPFADWGWWYRIANVMLATASQNVGVTWGSRVHGRLMAIFQDKFKQRYEEQA

Key:
crystal structure = molecular target: the molecule itself; experiment: crystal structure
cryo-EM structure = molecular target: the molecule itself; experiment: cryo-EM structure

Protein | stoichiometry N (crystal structure) | stoichiometry N (cryo-EM structure)
B1 | 2 | –
B2 | – | 2
